System: mutant form of α-Gal A expressed in HEK-293 cells
Test: HEK assay (GLP HEK / Migalastat Amenability Assay): α-Gal A activity in lysates of transiently transfected HEK-293 cells incubated with or without 10 μM migalastat
Type: cell-based, human
Settings: for Absolute increase (% WT): 10 μM migalastat versus baseline; for Relative increase: 10 μM migalastat α-Gal A activity relative to baseline; for 10 μM migalastat α-Gal A activity (% WT): 5 days; for 10 μM migalastat α-Gal A activity (% WT) / Baseline α-Gal A activity (% WT): percentage of baseline wild-type α-Gal A activity; for 10 μM migalastat α-Gal A activity (% WT) / Baseline α-Gal A activity (% WT) / Baseline α-Gal A activity / 10 μM migalastat α-Gal A activity: mean ± SEM; for Baseline α-Gal A activity (% WT): absence of migalastat; for Baseline α-Gal A activity / 10 μM migalastat α-Gal A activity: lysates of HEK-293 cells transfected with the mutant form; for Baseline α-Gal A activity: incubated 5 days in the absence of migalastat; for 10 μM migalastat α-Gal A activity: incubated 5 days with 10 μM migalastat
Method in brief: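 Activity reported as 4-MU released (nmol/mg/hr), mean±SEM, from lysates of transiently transfected HEK-293 cells expressing mutant α-Gal A, cultured with or without 10 μM migalastat.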

B1: K185M (protein)
chain: MQLRNPELHLGCALALRFLALVSWDIPGARALDNGLARTPTMGWLHWERFMCNLDCQEEPDSCISEKLFMEMAELMVSEGWKDAGYEYLCIDDCWMAPQRDSEGRLQADPQRFPHGIRQLANYVHSKGLKLGIYADVGNKTCAGFPGSFGYYDIDAQTFADWGVDLLKFDGCYCDSLENLADGYMHMSLALNRTGRSIVYSCEWPLYMWPFQKPNYTEIRQYCNHWRNFADIDDSWKSIKSILDWTSFNQERIVDVAGPGGWNDPDMLVIGNFGLSWNQQVTQMALWAIMAAPLFMSNDLRHISPQAKALLQDKDVIAINQDPLGKQGYQLRQGDNFEVWERPLSGLAWAVAMINRQEIGGPRSYTIAVASLGKGVACNPACFITQLLPVKRKLGFYEWTSRLRSHINPTGTVLLQLENTMQMSLKDLL
B1 was tested, and the “Absolute increase (% WT)” value was 27.8 % WT, the Relative increase was 1.3 and the “10 μM migalastat α-Gal A activity (% WT)” value was 102.9 ± 9 % WT. For the same molecule, the “Baseline α-Gal A activity (% WT)” value was 75.1 ± 4.6 % WT, the “Baseline α-Gal A activity” value was 33484 ± 2151 nmol/mg/h and the “10 μM migalastat α-Gal A activity” value was 44387 ± 2696 nmol/mg/h.

B2: H186N (protein)
chain: MQLRNPELHLGCALALRFLALVSWDIPGARALDNGLARTPTMGWLHWERFMCNLDCQEEPDSCISEKLFMEMAELMVSEGWKDAGYEYLCIDDCWMAPQRDSEGRLQADPQRFPHGIRQLANYVHSKGLKLGIYADVGNKTCAGFPGSFGYYDIDAQTFADWGVDLLKFDGCYCDSLENLADGYKNMSLALNRTGRSIVYSCEWPLYMWPFQKPNYTEIRQYCNHWRNFADIDDSWKSIKSILDWTSFNQERIVDVAGPGGWNDPDMLVIGNFGLSWNQQVTQMALWAIMAAPLFMSNDLRHISPQAKALLQDKDVIAINQDPLGKQGYQLRQGDNFEVWERPLSGLAWAVAMINRQEIGGPRSYTIAVASLGKGVACNPACFITQLLPVKRKLGFYEWTSRLRSHINPTGTVLLQLENTMQMSLKDLL
With B2 the “Absolute increase (% WT)” value was 26.8 % WT, the Relative increase was 1.4 and the “10 μM migalastat α-Gal A activity (% WT)” value was 90.3 ± 5.8 % WT. The “Baseline α-Gal A activity (% WT)” value was 63.5 ± 3.1 % WT, the “Baseline α-Gal A activity” value was 28175 ± 1462 nmol/mg/h and the “10 μM migalastat α-Gal A activity” value was 39509 ± 1885 nmol/mg/h.

B3: K185N (protein)
chain: MQLRNPELHLGCALALRFLALVSWDIPGARALDNGLARTPTMGWLHWERFMCNLDCQEEPDSCISEKLFMEMAELMVSEGWKDAGYEYLCIDDCWMAPQRDSEGRLQADPQRFPHGIRQLANYVHSKGLKLGIYADVGNKTCAGFPGSFGYYDIDAQTFADWGVDLLKFDGCYCDSLENLADGYNHMSLALNRTGRSIVYSCEWPLYMWPFQKPNYTEIRQYCNHWRNFADIDDSWKSIKSILDWTSFNQERIVDVAGPGGWNDPDMLVIGNFGLSWNQQVTQMALWAIMAAPLFMSNDLRHISPQAKALLQDKDVIAINQDPLGKQGYQLRQGDNFEVWERPLSGLAWAVAMINRQEIGGPRSYTIAVASLGKGVACNPACFITQLLPVKRKLGFYEWTSRLRSHINPTGTVLLQLENTMQMSLKDLL
With B3 the “Absolute increase (% WT)” value was 22.5 % WT, the Relative increase was 12.7 and the “10 μM migalastat α-Gal A activity (% WT)” value was 24.4 ± 1.9 % WT. For the same molecule, the “Baseline α-Gal A activity (% WT)” value was 1.9 ± 0.1 % WT, the “Baseline α-Gal A activity” value was 833 ± 38 nmol/mg/h and the “10 μM migalastat α-Gal A activity” value was 10540 ± 618 nmol/mg/h.

B4: H186D (protein)
chain: MQLRNPELHLGCALALRFLALVSWDIPGARALDNGLARTPTMGWLHWERFMCNLDCQEEPDSCISEKLFMEMAELMVSEGWKDAGYEYLCIDDCWMAPQRDSEGRLQADPQRFPHGIRQLANYVHSKGLKLGIYADVGNKTCAGFPGSFGYYDIDAQTFADWGVDLLKFDGCYCDSLENLADGYKDMSLALNRTGRSIVYSCEWPLYMWPFQKPNYTEIRQYCNHWRNFADIDDSWKSIKSILDWTSFNQERIVDVAGPGGWNDPDMLVIGNFGLSWNQQVTQMALWAIMAAPLFMSNDLRHISPQAKALLQDKDVIAINQDPLGKQGYQLRQGDNFEVWERPLSGLAWAVAMINRQEIGGPRSYTIAVASLGKGVACNPACFITQLLPVKRKLGFYEWTSRLRSHINPTGTVLLQLENTMQMSLKDLL
For B4, the “Absolute increase (% WT)” value was 18.2 % WT, the Relative increase was 1.3 and the “10 μM migalastat α-Gal A activity (% WT)” value was 78.2 ± 5.2 % WT. For the same molecule, the “Baseline α-Gal A activity (% WT)” value was 60 ± 4.1 % WT, the “Baseline α-Gal A activity” value was 26924 ± 2047 nmol/mg/h and the “10 μM migalastat α-Gal A activity” value was 34055 ± 1657 nmol/mg/h.

B5: K185T (protein)
chain: MQLRNPELHLGCALALRFLALVSWDIPGARALDNGLARTPTMGWLHWERFMCNLDCQEEPDSCISEKLFMEMAELMVSEGWKDAGYEYLCIDDCWMAPQRDSEGRLQADPQRFPHGIRQLANYVHSKGLKLGIYADVGNKTCAGFPGSFGYYDIDAQTFADWGVDLLKFDGCYCDSLENLADGYTHMSLALNRTGRSIVYSCEWPLYMWPFQKPNYTEIRQYCNHWRNFADIDDSWKSIKSILDWTSFNQERIVDVAGPGGWNDPDMLVIGNFGLSWNQQVTQMALWAIMAAPLFMSNDLRHISPQAKALLQDKDVIAINQDPLGKQGYQLRQGDNFEVWERPLSGLAWAVAMINRQEIGGPRSYTIAVASLGKGVACNPACFITQLLPVKRKLGFYEWTSRLRSHINPTGTVLLQLENTMQMSLKDLL
For B5, the “Absolute increase (% WT)” value was 19.0 % WT, the Relative increase was 1.2 and the “10 μM migalastat α-Gal A activity (% WT)” value was 92.6 ± 7.8 % WT. The “Baseline α-Gal A activity (% WT)” value was 73.6 ± 4.4 % WT, the “Baseline α-Gal A activity” value was 32028 ± 1167 nmol/mg/h and the “10 μM migalastat α-Gal A activity” value was 39805 ± 2259 nmol/mg/h.

B6: K185Q (protein)
chain: MQLRNPELHLGCALALRFLALVSWDIPGARALDNGLARTPTMGWLHWERFMCNLDCQEEPDSCISEKLFMEMAELMVSEGWKDAGYEYLCIDDCWMAPQRDSEGRLQADPQRFPHGIRQLANYVHSKGLKLGIYADVGNKTCAGFPGSFGYYDIDAQTFADWGVDLLKFDGCYCDSLENLADGYQHMSLALNRTGRSIVYSCEWPLYMWPFQKPNYTEIRQYCNHWRNFADIDDSWKSIKSILDWTSFNQERIVDVAGPGGWNDPDMLVIGNFGLSWNQQVTQMALWAIMAAPLFMSNDLRHISPQAKALLQDKDVIAINQDPLGKQGYQLRQGDNFEVWERPLSGLAWAVAMINRQEIGGPRSYTIAVASLGKGVACNPACFITQLLPVKRKLGFYEWTSRLRSHINPTGTVLLQLENTMQMSLKDLL
For B6, the “Absolute increase (% WT)” value was 30.9 % WT, the Relative increase was 1.7 and the “10 μM migalastat α-Gal A activity (% WT)” value was 74.5 ± 2.9 % WT. The “Baseline α-Gal A activity (% WT)” value was 43.6 ± 2.2 % WT, the “Baseline α-Gal A activity” value was 14992 ± 947 nmol/mg/h and the “10 μM migalastat α-Gal A activity” value was 25543 ± 1463 nmol/mg/h.

B7: H186L (protein)
chain: MQLRNPELHLGCALALRFLALVSWDIPGARALDNGLARTPTMGWLHWERFMCNLDCQEEPDSCISEKLFMEMAELMVSEGWKDAGYEYLCIDDCWMAPQRDSEGRLQADPQRFPHGIRQLANYVHSKGLKLGIYADVGNKTCAGFPGSFGYYDIDAQTFADWGVDLLKFDGCYCDSLENLADGYKLMSLALNRTGRSIVYSCEWPLYMWPFQKPNYTEIRQYCNHWRNFADIDDSWKSIKSILDWTSFNQERIVDVAGPGGWNDPDMLVIGNFGLSWNQQVTQMALWAIMAAPLFMSNDLRHISPQAKALLQDKDVIAINQDPLGKQGYQLRQGDNFEVWERPLSGLAWAVAMINRQEIGGPRSYTIAVASLGKGVACNPACFITQLLPVKRKLGFYEWTSRLRSHINPTGTVLLQLENTMQMSLKDLL
B7 was tested, and the “Absolute increase (% WT)” value was 27.1 % WT, the Relative increase was 1.3 and the “10 μM migalastat α-Gal A activity (% WT)” value was 97.5 ± 8.2 % WT. The “Baseline α-Gal A activity (% WT)” value was 70.4 ± 3.4 % WT, the “Baseline α-Gal A activity” value was 31615 ± 1833 nmol/mg/h and the “10 μM migalastat α-Gal A activity” value was 42145 ± 2540 nmol/mg/h.
